In the assay the target is T1, ATG7 W243A (human, UniProt O95352 1-703, W243A).
T1 sequence (looked up): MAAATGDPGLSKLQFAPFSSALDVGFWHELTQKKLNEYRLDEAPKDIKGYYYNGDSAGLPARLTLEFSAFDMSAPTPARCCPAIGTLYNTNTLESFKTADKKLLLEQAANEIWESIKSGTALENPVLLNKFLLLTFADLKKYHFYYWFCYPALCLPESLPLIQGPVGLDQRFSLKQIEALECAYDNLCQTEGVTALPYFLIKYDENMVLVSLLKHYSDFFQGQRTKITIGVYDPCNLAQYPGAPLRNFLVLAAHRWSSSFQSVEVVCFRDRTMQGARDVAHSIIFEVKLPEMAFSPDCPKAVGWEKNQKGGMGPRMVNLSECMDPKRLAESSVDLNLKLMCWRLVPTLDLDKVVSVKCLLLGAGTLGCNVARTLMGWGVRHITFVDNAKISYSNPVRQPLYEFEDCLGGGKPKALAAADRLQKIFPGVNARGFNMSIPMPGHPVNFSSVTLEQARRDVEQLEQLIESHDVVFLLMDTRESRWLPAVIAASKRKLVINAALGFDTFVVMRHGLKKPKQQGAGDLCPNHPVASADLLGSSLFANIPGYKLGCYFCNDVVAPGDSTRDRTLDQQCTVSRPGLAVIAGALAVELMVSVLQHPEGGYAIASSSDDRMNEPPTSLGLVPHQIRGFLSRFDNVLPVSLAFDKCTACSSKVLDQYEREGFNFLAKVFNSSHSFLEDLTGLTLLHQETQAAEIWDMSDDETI
Put plainly: pull-down.

B1: GST-ATG3 (enzyme)
chain: not shown
As to B1, the binding result is “binds”.

The values are drawn from publication PMC4507496 (Biochemical and biophysical research communications, 2015).
